Source: the RNAGym collection of RNA variant scans (doi:10.7554/elife.80360)

B1: Hairpin Ribozyme (parent)
chain: GUCCUCUUUCACGUGCGCGUGAAAGAGAGAAGUGAACCAGAGAAACACACGUUGUGGUAUAUUACCUGGUA

Variants of: B1
Assay: self-cleavage, relative activity (ratio to wild type); higher = more cleavage; co-transcriptional

Compared with U8A U14C, U9C C38G is lower in self-cleavage: 0.845 for the first, 0.145 for the second.

First: U9C A41U
Second: U9G A24C
The self-cleavage of the first is higher: 0.966 for the first, 0.318 for the second.

Compared with U8G C50U, U9A G27A is lower in self-cleavage: 0.327 for the first, 0.25 for the second.

Going from U9G A61C to U9G G51C, the self-cleavage rises from 0.115 to 0.614.

Compared with U9G G32A, U8G A28G is higher in self-cleavage: 0.128 for the first, 0.843 for the second.

First: U8C U53C
Second: U9G G54U
The self-cleavage of the first is higher: 0.766 for the first, 0.52 for the second.

First: U9G G54C
Second: U8G C38A
The self-cleavage of the first is higher: 0.341 for the first, 0.165 for the second.

First: U8G C38U
Second: U9A U67C
The self-cleavage of the first is higher: 0.548 for the first, 0.174 for the second.

Compared with U8G C16U, U8G C16A is lower in self-cleavage: 0.916 for the first, 0.648 for the second.

Compared with U8G C16G, U8C U60G is higher in self-cleavage: 0.395 for the first, 0.489 for the second.

Compared with U8C U60A, U8C U60C is higher in self-cleavage: 0.554 for the first, 1.23 for the second.

Going from U8A U9C to U8A G69A, the self-cleavage falls from 0.377 to 0.375.

Compared with U8A G69U, U8A G69C is lower in self-cleavage: 0.213 for the first, 0.191 for the second.

Compared with U9C U63C, U8G A49G is higher in self-cleavage: 0.133 for the first, 0.264 for the second.

Compared with U8G A49U, U9A U14A is higher in self-cleavage: 0.164 for the first, 0.594 for the second.

Compared with U8C G56U, U8C C50A is lower in self-cleavage: 0.167 for the first, 0.144 for the second.

First: U8C C50G
Second: U8G U53G
The self-cleavage of the first is lower: 0.119 for the first, 0.705 for the second.

Compared with U9G C10G, U8G U20A is lower in self-cleavage: 0.375 for the first, 0.353 for the second.

Going from U8G U20G to U9C A49G, the self-cleavage falls from 0.614 to 0.21.

Going from U9C A49C to U9C A71C, the self-cleavage rises from 0.204 to 1.24.

Going from U9C A71G to U9C A47U, the self-cleavage falls from 0.933 to 0.178.

First: U8G A64U
Second: U8G A64C
The self-cleavage of the first is higher: 0.146 for the first, 0.0997 for the second.

First: U8G A43G
Second: U8G G51A
The self-cleavage of the first is lower: 0.132 for the first, 0.739 for the second.

Compared with U9A G56U, U9G G13U is higher in self-cleavage: 0.178 for the first, 0.678 for the second.

Going from U9G G13A to U9G G68A, the self-cleavage falls from 0.536 to 0.247.

First: U9C C66G
Second: U9G G42C
The self-cleavage of the first is lower: 0.202 for the first, 0.239 for the second.

Going from U9G G42A to U8C G17U, the self-cleavage rises from 0.109 to 0.554.

Compared with U8C G17C, U8G A47U is lower in self-cleavage: 0.404 for the first, 0.168 for the second.

Going from U9C U55A to U9C U55C, the self-cleavage falls from 0.299 to 0.134.

Going from U9A C38A to U9C U53A, the self-cleavage rises from 0.146 to 1.19.

First: U9G G57U
Second: U9A A44C
The self-cleavage of the first is higher: 0.379 for the first, 0.132 for the second.

Compared with U9A A44U, U8A U20C is higher in self-cleavage: 0.109 for the first, 0.928 for the second.

Going from U8A U20A to U9C G40A, the self-cleavage falls from 0.479 to 0.313.

First: U9C G34U
Second: U9C G19U
The self-cleavage of the first is higher: 1.09 for the first, 0.617 for the second.

Compared with U9C G19C, U8C A59C is lower in self-cleavage: 0.485 for the first, 0.183 for the second.

Going from U8C A59G to U9G A23G, the self-cleavage rises from 0.203 to 0.72.

First: U9A A71U
Second: U8A G13C
The self-cleavage of the first is lower: 0.525 for the first, 0.687 for the second.

Going from U8A G13A to U8A G13U, the self-cleavage falls from 0.637 to 0.551.

Compared with U8G A41U, U8G A41G is lower in self-cleavage: 1.07 for the first, 0.673 for the second.

First: U8C U55A
Second: U9A A59U
The self-cleavage of the first is higher: 0.16 for the first, 0.14 for the second.

Going from U9G G19U to U9C G25U, the self-cleavage falls from 0.546 to 0.386.

Work on U8G C46A yielded a self-cleavage of 0.134.
